From US20230332136A1, “IL-17 RECEPTOR MODULATOR SCREENING SYSTEM” (New York University, priority 2022, published 2023) come the findings set out here.

The subject of experiment [1] is IL-6. The experiment in a line: IL-17A titration for activation of endogenous target gene IL-6 in MEF cells. The experiment is classed as cell-based, mouse. To be noted: IL-17A titration (FIG. 3B). The text has this:
FIGS. 3A and 3B provide construct schematics (designed for mouse genes), and cartoon depictions of the proteins encoded by the constructs, and a graph illustrating IL-17A titrations for activation of an endogenous target gene (IL-6) in MEF cells. […] FIG. 3A: schematics of functional units of the retroviral transfer plasmid constructs used to build the mouse ADIR system.

For experiment [2], the target named is T1, IL-17RA/RC (Mus musculus, UniProt Q60943+Q8K4C2).
T1 construct: Full length IL-17RC in the purified ADIR system; expressed in transfected cells; host or cells: mouse embryonic fibroblasts (MEF), retrovirally transduced
T1 sequence (Q60943 32-864): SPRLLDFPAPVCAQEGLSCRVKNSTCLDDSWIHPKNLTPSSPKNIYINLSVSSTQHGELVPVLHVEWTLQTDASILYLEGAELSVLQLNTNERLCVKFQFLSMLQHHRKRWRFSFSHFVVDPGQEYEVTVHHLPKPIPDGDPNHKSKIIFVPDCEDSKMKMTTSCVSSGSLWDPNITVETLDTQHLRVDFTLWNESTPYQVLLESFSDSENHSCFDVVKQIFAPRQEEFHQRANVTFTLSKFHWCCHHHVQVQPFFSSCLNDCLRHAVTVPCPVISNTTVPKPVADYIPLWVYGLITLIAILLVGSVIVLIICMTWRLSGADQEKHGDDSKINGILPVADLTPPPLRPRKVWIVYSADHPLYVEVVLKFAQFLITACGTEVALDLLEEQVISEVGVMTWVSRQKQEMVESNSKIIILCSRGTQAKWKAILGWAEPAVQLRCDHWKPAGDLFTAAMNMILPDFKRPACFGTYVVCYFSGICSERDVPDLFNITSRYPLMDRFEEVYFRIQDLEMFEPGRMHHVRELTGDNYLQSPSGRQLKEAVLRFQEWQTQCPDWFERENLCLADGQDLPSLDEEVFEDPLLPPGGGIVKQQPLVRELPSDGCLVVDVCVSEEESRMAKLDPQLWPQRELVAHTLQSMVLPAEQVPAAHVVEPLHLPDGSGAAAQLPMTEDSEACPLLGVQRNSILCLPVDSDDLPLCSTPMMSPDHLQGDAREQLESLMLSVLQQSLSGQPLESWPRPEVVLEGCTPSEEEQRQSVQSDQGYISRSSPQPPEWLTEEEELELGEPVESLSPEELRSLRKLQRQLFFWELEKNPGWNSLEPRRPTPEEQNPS
T1 sequence (Q8K4C2 22-698): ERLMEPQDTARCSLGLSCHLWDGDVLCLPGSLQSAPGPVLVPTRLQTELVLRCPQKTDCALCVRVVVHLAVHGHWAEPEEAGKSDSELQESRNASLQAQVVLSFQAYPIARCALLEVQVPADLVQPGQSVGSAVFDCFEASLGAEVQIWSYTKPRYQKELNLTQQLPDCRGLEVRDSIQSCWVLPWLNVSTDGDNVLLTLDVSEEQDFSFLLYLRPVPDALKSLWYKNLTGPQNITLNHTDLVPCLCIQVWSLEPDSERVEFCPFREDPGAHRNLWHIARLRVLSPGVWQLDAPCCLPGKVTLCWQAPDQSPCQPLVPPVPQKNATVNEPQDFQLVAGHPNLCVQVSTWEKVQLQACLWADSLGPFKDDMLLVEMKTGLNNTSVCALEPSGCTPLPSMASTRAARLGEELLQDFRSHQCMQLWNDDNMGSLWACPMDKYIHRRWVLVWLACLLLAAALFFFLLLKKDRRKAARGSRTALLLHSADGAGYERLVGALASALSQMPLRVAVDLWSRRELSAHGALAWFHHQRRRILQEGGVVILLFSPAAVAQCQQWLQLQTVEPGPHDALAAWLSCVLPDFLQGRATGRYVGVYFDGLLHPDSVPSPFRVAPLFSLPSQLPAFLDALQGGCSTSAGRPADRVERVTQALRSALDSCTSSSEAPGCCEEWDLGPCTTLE
The experiment in a line: mADIR-17 dmCherry reporter assay in MEF cells (flow cytometry). The experiment is classed as cell-based. The text has this:
Unless defined otherwise herein, all technical and scientific terms used in this disclosure have the same meaning as commonly understood by one of ordinary skill in the art to which this disclosure pertains. Where the term “ADIR” is used herein it means ACT1-Dependent IL-17 Receptor Modulator Screening System. The preface “m” means mouse and the prefix “h” means human.
Mouse constructs were produced as depicted in the panels of FIG. 1. Human sequence constructs were produced as in the panels of FIG. 9, where mouse cDNA constructs were replaced by human cDNA constructed. In the mouse ADIR system exogenous IL-17RC was not provided because the cell line (mouse embryonic fibroblasts) have endogenous IL-17RC expression. In the hADIR system, human components used for the hADIR system (hRA, hRC, hRB, hAct1) were expressed from added polynucleotides.
The data reflected in the Figures utilized a reporter system specifically designed for Act1-dependent IL-17 signaling pathways. The reporter system is based at least in part on the principle that the engagement of active cognate ligands, and the interaction between Act1 and IL-17 receptors is required for active signaling of IL-17A/F, IL-17E, and IL-17C. The protein-protein-interaction (PPI) based reporter system is highly specific and easily scalable. The disclosure is illustrated using mouse and human systems. For the data presented in the Figures, the system comprised a three-part reporter system specifically designed for detecting IL-17A/F, IL-17E, and IL-17C signaling. The PPI-based reporter system provides for detecting active signaling, and is specific for each of the IL-17 family cytokines. The system that is responsive to binding of IL-17A and IL-17F comprises (1) an Act1-tobacco etch virus (TEV) protease fusion protein, which upon active IL-17A/F binding to the IL-17RA/RC receptor heterodimer on a target cell, will be recruited to (2) IL-17RC fused with a TEV cleavage site(TSC)-tTA (a transcriptional transactivator that binds to tetracycline responsive element, or TRE), releasing tTA, which will subsequently translocate into the nucleus where a (3) TRE-dmCherry-PEST (destabilized mCherry) element is integrated into the genome. tTA binds to the TRE to drive dmCherry expression in the target modified cell. The three described components, Act1-TEV, IL-17RC-TSC-tTA, and TRE-dmCherry-PEST, along with IL-17RA, can be delivered by retro or lenti-viral vectors or guide-RNA directed nucleases, or recombinase systems, or by homologous recombination, into mouse embryonic fibroblasts (MEF) or other mammalian cell lines, establishing stable reporter cell lines. Using the same principle, IL-17RC-TSC-tTA can be replaced with IL-17RB-TSC-tTA in the described system to provide for IL-17E (IL-25) binding, and with IL-17RE-TSC-tTA for detecting IL-17C binding. A parallel approach involves attaching the fusion protein of —TSC-tTA to the RA component and three independent system cell lines generated by supplementing RC/RB/RE, Act1-TEV, and TRE-dmCherry reporter components. Each of the retroviral vectors can contain a unique selection or fluorescent marker to enable efficient generation and maintenance of stable cell lines (for example, Puromycin resistance for m/hIL-17RC(RB, RE)-TSC-tTA; EBFP for m/hAct1-TEV; Neomycin resistance and mVenus fluorescence for TRE-dmCherry-PEST, and Thy1.1 for m/hRA).

B1: IL-17A: mouse IL-17 family cytokine, cognate ligand of IL-17RA/RC, used as agonist in the mADIR-17 system (protein, UniProt Q62386 26-158, looked up)
Interleukin-17A: AAIIPQSSACPNTEAKDFLQNVKVNLKVFNSLGAKVSSRRPSDYLNRSTSPWTLHRNEDPDRYPSVIWEAQCRHQRCVNAEGKLDHHMNSVLIQQEILVLKREPESCPFTFRVEKMLVGVGCTCVASIVRQAA
Take B1: the “activation of endogenous target gene (IL-6)” value in experiment [1] is “upregulation of IL-6”. Besides, the dmCherry signal produced in experiment [2] (0.4 ng/ml, after 24 hrs (FIG. 7)) was determined as 5.75%; in experiment [2] (2 ng/ml, after 24 hrs (FIG. 7)) it was 24.6%; in experiment [2] (10 ng/ml, after 24 hrs (FIG. 7)), 43.6%; in experiment [2] (50 ng/ml, after 24 hrs (FIG. 7)), 55.1%; in experiment [2] (100 ng/ml, after 24 hrs (FIG. 6I)), 25%; in experiment [2] (100/2 ng/ml, after 24 hrs (FIG. 6H)), 24.5%. For the same molecule, the dmCherry signal produced is given as 21.9% in experiment [2] (100/(2^2) ng/ml, after 24 hrs (FIG. 6G)); 19.9% in experiment [2] (100/(2^3) ng/ml, after 24 hrs (FIG. 6F)); 12.6% in experiment [2] (100/(2^5) ng/ml, after 24 hrs (FIG. 6D)); 8.69% in experiment [2] (100/(2^6) ng/ml, after 24 hrs (FIG. 6C)); 5.36% in experiment [2] (100/(2′7) ng/ml, after 24 hrs (FIG. 6B)). For the same molecule, the “cells turning on dmCherry signal” value in experiment [2] (50 ng/ml, 24 hr after plating (FIG. 5B)) came out at 27.2%. Moreover, the dmCherry produced in experiment [2] (100/(2^4) ng/ml, after 24 hrs (FIG. 6E)) is given as 17.6%. Moreover, in experiment [2] (mIL-17A/F system, three parameter [Agonist] vs. response fit (FIG. 6J)), the “EC50 (sensitivity, dose-dependent dmCherry response)” value was 3.556 ng/mL.
